Reference: patent publication US20200384072A1, “THERAPY OF IONIZING RADIATION-INDUCED DISORDERS” (SCK-CEN, priority 2019, published 2020)

Experiments:
[1] = tested on: TICAE cells; assay: Intracellular ROS, CM-H2DCFDA flow cytometry, TICAE cells; type: cell-based, human; conditions: 100 μM TAT-Gap19, 0.1 Gy, 45 min
Experimental: TICAE and TIME cells were seeded in a 6-well plate at a density of 250000 cells/well. Three days later, cells reached 100% confluence. At 30 minutes before X-ray exposure (0.1 and 5 Gy), cells were washed with PBS to remove traces of the original medium. Afterwards, HMS supplemented with 25 mM HEPES (Sigma-Aldrich Co. LCC, Diegem, Belgium) and 10 μmol/L of the CM-H2DCFDA dye (Sigma-Aldrich Co. LCC, Diegem, Belgium) was added to the cells, and 100 μM TAT-Gap19 (Genosphere Biotechnologies, Paris, France) was added to block the Cx43 hemichannels. After irradiation, cells were washed with PBS and a 0.05% trypsin solution supplemented with 0.02% EDTA was used to detach the cells, followed by a 5 minute incubation time (37° C., 5% CO2). After trypsinization, the cells were transferred into a 1.5 mL tube and centrifuged for […] at 200 RCF. The supernatant was discard and the pellet was re-suspended in MSS without Ca2+ and Mg2+(Sigma-Aldrich Co. LCC, Diegem, Belgium). Finally, 1 μg/mL PI was added to each sample to exclude the dead cells. A positive control, 20 μmol/L tert-butyl hydroxyperoxide (tBHP), was added to the cells and incubated for 15 min. Intracellular ROS was assessed by analyzing the fluorescent signals using BD Accuri™ c6 Flow Cytometry (BD Biosciences, San Jose, Calif. USA). At least 10 000 events were measured. […]

[2] = target: T1, Cx43 hemichannels (Homo sapiens, UniProt P17302); assay: Propidium iodide dye uptake assay after irradiation, TICAE cells; type: cell-based
T1 construct: endogenous in cells; host or cells: TICAE and TIME cells (human endothelial cell lines)
Excerpt: Hemichannel opening was also investigated by dye uptake studies making use of the hemichannel permeable fluorescent tracer propidium iodide (PI; MW 668.4 Da). In addition, dextran fluorescein 10 kDa dye was used to assess membrane integrity and occurrence of cell death. PI stains cells with open hemichannels, late apoptotic and necrotic cells, while dextran fluorescein only stains late apoptotic and necrotic cells. Therefore, PI-positive and dextran fluorescein-negative cells are a measure for hemichannel opening while dextran fluorescein-positive cells are a measure for dead cells.
TICAE and TIME cells were seeded in a 24-well plate at a density of 1.25×10^5 and 1.5×10^5 cells/well, respectively, in six biological replicates. Three days later, cells reached 100% confluence. Thirty minutes before irradiation, cells were refreshed with 1 ml medium alone or with medium supplemented with 100 μM TAT-Gap19 (Genosphere Biotechnologies, Paris, France). For fractionated irradiation, cells were refreshed with 1.5 ml medium/well. At different time points after irradiation (1, 6 and 72 h), cells were washed twice with HMS supplemented with 25 mM HEPES (Sigma-Aldrich Co. LCC, Diegem, Belgium) (HBSS-HEPES). Afterwards, the cells were incubated with 1 mM PI and 200 μM dextran fluorescein (10 kDa) (Life Technologies, Merelbeke, Belgium), dissolved in HBSS-HEPES for 5 minutes followed by 5 times washing with MSS-HEPES. Finally, the fluorescence was measured using an IncuCyte ZOOM® system (Essen BioScience, Ann Arbor, Mich., USA) by using different channels (TRITC, FITC and phase contrast) and a 10× objective Fluorescence signal was normalized to cell number.

T1 sequence (P17302 whole entry): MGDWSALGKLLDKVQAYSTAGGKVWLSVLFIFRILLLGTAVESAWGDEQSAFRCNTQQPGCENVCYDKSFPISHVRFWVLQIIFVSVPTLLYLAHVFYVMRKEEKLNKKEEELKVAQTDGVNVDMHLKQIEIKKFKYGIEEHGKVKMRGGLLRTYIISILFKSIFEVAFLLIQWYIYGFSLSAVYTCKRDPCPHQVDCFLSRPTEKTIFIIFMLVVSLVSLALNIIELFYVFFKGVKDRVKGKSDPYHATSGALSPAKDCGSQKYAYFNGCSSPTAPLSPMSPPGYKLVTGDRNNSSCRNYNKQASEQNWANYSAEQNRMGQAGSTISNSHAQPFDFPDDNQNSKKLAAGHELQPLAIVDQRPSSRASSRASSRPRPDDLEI

“TAT-Gap19: connexin mimetic peptide, amino-acids 128-136 of the CL of Cx43 (SEQ ID NO: 2), Gap19 linked to TAT sequence; Cx43 hemichannel inhibitor (YGRKKRRQRRRKQIEIKKFK)” was tested, and the “intracellular ROS generation (flow cytometry)” value [1] was “significantly reduced intracellular ROS generation”, the “radiation-induced PI dye uptake” value ([2]; 100 μM TAT-Gap19, fractionated 5 Gy, 72 h) was “had no effect” and the “radiation-induced PI dye uptake” value ([2]; 100 μM TAT-Gap19, single 5 Gy, 1 h p.i.) was “Significant inhibition”. For the same substance, the “radiation-induced PI dye uptake” value ([2]; 100 μM TAT-Gap19, single irradiation, 72 h p.i.) was “most clear and significant at the 72 h p.i. time point”.
